Measured values from US20230372448A1, “THERAPEUTIC USE OF LONG-ACTING CONJUGATE OF TRIPLE AGONIST ACTING ON ALL OF GLUCAGON, GLP-1 AND GIP RECEPTORS AGAINST MULTIPLE SCLEROSIS” (HANMI PHARM. CO. ,LTD., priority 2020, published 2023).
Positions of bridges follow the written chain, without caps; N, C: chain ends. Non-standard residues stand in square brackets, D forms with d. No end group written: not given here. *: point of attachment. Acetyl(2-(4-imidazolyl)) = O=C(Cc1c[nH]cn1)*; Aib = CC(C)(N)C(=O)O

T1: human GIP receptor (human, UniProt P48546 22-466)
T1 sequence (looked up): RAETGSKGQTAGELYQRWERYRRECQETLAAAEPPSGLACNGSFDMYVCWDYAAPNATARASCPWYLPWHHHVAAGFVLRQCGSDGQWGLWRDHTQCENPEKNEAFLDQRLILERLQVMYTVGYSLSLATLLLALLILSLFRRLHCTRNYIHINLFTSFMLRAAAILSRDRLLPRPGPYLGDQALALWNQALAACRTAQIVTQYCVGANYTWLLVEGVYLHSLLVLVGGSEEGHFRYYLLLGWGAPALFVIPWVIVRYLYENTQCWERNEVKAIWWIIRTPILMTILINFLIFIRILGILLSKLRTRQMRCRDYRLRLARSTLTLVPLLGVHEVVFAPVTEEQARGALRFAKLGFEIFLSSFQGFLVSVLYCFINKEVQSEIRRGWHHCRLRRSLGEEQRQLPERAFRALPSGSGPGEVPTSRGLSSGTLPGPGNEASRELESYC


Tests used:
Experiment in all cases: cell-based or functional assay
[1] = target: human GLP-1 receptor (human, UniProt P43220 24-463)
[2] = target: human GCG receptor (human, UniProt P47871 26-477)
human GCG receptor, sequence (P47871 26-477): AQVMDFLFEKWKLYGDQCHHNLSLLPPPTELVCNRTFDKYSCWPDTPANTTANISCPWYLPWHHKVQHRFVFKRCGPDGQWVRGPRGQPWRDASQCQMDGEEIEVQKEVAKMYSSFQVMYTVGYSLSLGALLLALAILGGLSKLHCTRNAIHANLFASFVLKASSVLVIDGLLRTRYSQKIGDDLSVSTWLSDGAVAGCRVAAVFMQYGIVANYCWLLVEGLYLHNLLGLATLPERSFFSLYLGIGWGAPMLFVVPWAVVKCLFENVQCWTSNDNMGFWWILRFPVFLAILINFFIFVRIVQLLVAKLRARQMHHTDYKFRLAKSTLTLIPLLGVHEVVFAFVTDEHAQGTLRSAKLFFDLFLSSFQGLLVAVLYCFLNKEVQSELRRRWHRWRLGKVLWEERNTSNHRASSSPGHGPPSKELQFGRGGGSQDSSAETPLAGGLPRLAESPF

[3] = target: T1, human GIP receptor

Binder	In vitro activity (%) compared with native peptide: vs GLP-1 [1]	In vitro activity (%) compared with native peptide: vs Glucagon [2]	In vitro activity (%) compared with native peptide: vs GIP [3]
{Acetyl(2-(4-imidazolyl))}-[Aib]QGTFTSDYSIAMDEIACKDFVNWLLNTK (bridge 15-19; not fully specified) [triple agonist of SEQ ID NO: 61]	59.8%	< 0.1%	2.8%
{Acetyl(2-(4-imidazolyl))}-[Aib]QGTFTSDKSKYLDERAAQDFVQWLLDGGPSSGAPPPS (not fully specified) [triple agonist of SEQ ID NO: 62]	5.2%	< 0.1%	< 0.1%
{Acetyl(2-(4-imidazolyl))}-[Aib]QGTFTSDCSKYLDERAAQDFVQWLLDGGPSSGAPPPS (not fully specified) [triple agonist of SEQ ID NO: 63]	15.3%	< 0.1%	< 0.1%
Y[Aib]QGTFTSDYSKYLDECAAKEFVQWLLDHHPSSGQPPPS (bridge 16-20; not fully specified) [triple agonist of SEQ ID NO: 64]	64.6%	60.1%	92.9%
H[Aib]QGTFTSDVSKYLDGQAAKEFVAWLLKGC (not fully specified) [triple agonist of SEQ ID NO: 7]	13.7%	< 0.1%	< 0.1%
H[Aib]QGTFTSDYSKCLDEKRAKEFVQWLLDHHPSSGQPPPS (bridge 16-20; not fully specified) [triple agonist of SEQ ID NO: 65]	95.4%	25.2%	11.6%
Y[Aib]QGTFTSDYSKYLDECRAKDFVQWLLDHHPSSGQPPPS (bridge 16-20; not fully specified) [triple agonist of SEQ ID NO: 66]	15.8%	172%	17.2%
Y[Aib]QGTFTSDYSKYLDECAAKDFVQWLLDHHPSSGQPPPS (bridge 16-20) [triple agonist of SEQ ID NO: 67]	28.5%	46.2%	39.8%
Y[Aib]QGTFTSDYSKCLDEKAAKEFVQWLLDHHPSSGQPPPS (bridge 16-20; not fully specified) [triple agonist of SEQ ID NO: 68]	27.9%	8.8%	107%
Y[Aib]QGTFTSDYSKCLDERAAKEFVQWLLDHHPSSGQPPPS (bridge 16-20; not fully specified) [triple agonist of SEQ ID NO: 69]	24.3%	9.6%	62.8%
Y[Aib]QGTFTSDYSKCLDEKRAKDFVQWLLDHHPSSGQPPPS (bridge 16-20; not fully specified) [triple agonist of SEQ ID NO: 70]	15.1%	71.3%	64.4%
Y[Aib]QGTFTSDYSKYLDERACKDFVQWLLDHHPSSGQPPPS (bridge 16-20; not fully specified) [triple agonist of SEQ ID NO: 71]	90.1%	12.7%	94.7%
Y[Aib]QGTFTSDCSKYLDERAAKDFVQWLLDHHPSSGQPPPS (bridge 16-20; not fully specified) [triple agonist of SEQ ID NO: 72]	11.5%	1%	1.6%
{Acetyl(2-(4-imidazolyl))}-[Aib]QGTFTSDYSKYLDECRAKEFVQWLLDHHPSSGQPPPS (bridge 15-19; not fully specified) [triple agonist of SEQ ID NO: 73]	22.6%	5.4%	3%
{Acetyl(2-(4-imidazolyl))}-[Aib]QGTFTSDYSKCLDEKRAKEFVQWLLDHHPSSGQPPPS (bridge 15-19; not fully specified) [triple agonist of SEQ ID NO: 74]	12.9%	0.9%	1%
H[Aib]QGTFTSDVSKYLDGQAAQEFVAWLLKGC (not fully specified) [triple agonist of SEQ ID NO: 8]	14.2%	0.1%	< 0.1%
Y[Aib]QGTFTSDYSKYLDEKAAKEFVQWLLDHHPSSGQPPPSC (bridge 16-20; not fully specified) [triple agonist of SEQ ID NO: 75]	35.1%	8.5%	18%
Y[Aib]QGTFTSDYSKYLDEKRAKDFVQWLLDHHPSSGQPPPSC (bridge 16-20; not fully specified) [triple agonist of SEQ ID NO: 76]	10.3%	47.6%	11.7%
Y[Aib]QGTFTSDYSKYLDEKAAKDFVQWLLDHHPSSGQPPPSC (bridge 16-20; not fully specified) [triple agonist of SEQ ID NO: 77]	38.7%	12.2%	35.5%
H[Aib]QGTFTSDYSKYLDEKRQKEFVQWLLDTKC (bridge 16-20; not fully specified) [triple agonist of SEQ ID NO: 78]	51%	14%	0.12%
H[Aib]EGTFTSDYSIAMDEIHQKDFVNWLLAQKC (bridge 16-20; not fully specified) [triple agonist of SEQ ID NO: 79]	41.5%	4.9%	1.4%
H[Aib]EGTFTSDYSIAMDEIHQKDFVDWLLAEKC (bridge 16-20; not fully specified) [triple agonist of SEQ ID NO: 80]	8.1%	0%	0.1%
{Acetyl(2-(4-imidazolyl))}-[Aib]QGTFTSDYSKYLDEKRQKEFVQWLLNTC (bridge 15-19; not fully specified) [triple agonist of SEQ ID NO: 81]	7.8%	0.3%	< 0.1%
{Acetyl(2-(4-imidazolyl))}-[Aib]QGTFTSDYSKYLDEKRQKEFVQWLLDTC (bridge 15-19; not fully specified) [triple agonist of SEQ ID NO: 82]	9.5%	1.1%	< 0.1%
{Acetyl(2-(4-imidazolyl))}-[Aib]EGTFTSDYSIAMDEIHQKDFVDWLLAEC (bridge 15-19; not fully specified) [triple agonist of SEQ ID NO: 84]	4.2%	< 0.1%	< 0.1%
H[Aib]QGTFTSDVSKYLDGQAAQEFVAWLLAGC (not fully specified) [triple agonist of SEQ ID NO: 9]	32.1%	0.13%	< 0.1%
